Measured values from paper PMC3302164.

Target: HA-PP1β, expressed in HEK 293 cells (human) (UniProt P62140)
Test: co-IP

Sequence of HA-PP1β, expressed in HEK 293 cells (human) (P62140 whole entry): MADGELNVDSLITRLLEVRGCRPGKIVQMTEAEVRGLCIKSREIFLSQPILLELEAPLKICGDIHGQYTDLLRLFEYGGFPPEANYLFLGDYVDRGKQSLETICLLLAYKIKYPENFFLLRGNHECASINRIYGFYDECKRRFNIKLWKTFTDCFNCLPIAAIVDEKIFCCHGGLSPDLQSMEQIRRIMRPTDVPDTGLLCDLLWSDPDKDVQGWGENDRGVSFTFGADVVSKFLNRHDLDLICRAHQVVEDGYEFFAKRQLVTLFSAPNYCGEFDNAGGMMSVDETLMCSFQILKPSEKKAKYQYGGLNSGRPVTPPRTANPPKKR

extent of interaction relative to that with PP1α, after doxorubicin: 30%
Substance: FLAG-KAP1 (wild type), expressed in HEK 293 cells (from UniProt Q13263 1-835) (natural protein)
